Results taken from the supplement of paper PMC12764529.
± gives the half width of the 95% confidence interval.

Key:
[1] = folding stability dG unfold from trypsin proteolysis; higher = more stable
In short: (§1)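 Unfolding free energy was derived, per protease or combined, against a sequence-predicted unfolded-state K50 and a shared folded-state K50, starting from K50 inferred by Bayesian fitting of sequencing counts. Digestion with trypsin and chymotrypsin was carried out on designed mini-proteins under 80 residues without cysteine in a PA-tagged cDNA display construct. Only designs with AlphaFold2 dimer inter-PAE above 15 were kept.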

[2] = folding stability dG unfold from chymotrypsin proteolysis; higher = more stable
In short: as §1

[3] = folding stability dG unfold (combined trypsin and chymotrypsin); higher = more stable
In short: as §1

Sequence	folding stability dG unfold [1] [kcal/mol]	folding stability dG unfold [2] [kcal/mol]	folding stability dG unfold [3] [kcal/mol]
SAGPPPVKVTVTADYVIEDGKPIVTYTLTFPDGSTTTVTSDPETLVEWLKQHYPDIDVLNFNSGTAPAASAG [r5_25_JUSTAS]	2.78 ± 0.068	4.05 ± 0.047	3.77 ± 0.13
SAGPPWEPVPITPEIIDKLADKLNPGFPISLQVYRHPDGRVKISIRNEGSGKEYTLVVDPDGDIEIEPSAGG [r19_70_TrROS]	3.07 ± 0.19	3.522 ± 0.033	3.4 ± 0.1
SAGPRPIEIYVDPDGMINIRFPNNGREINIPIPKGAEIEIIELPDDYIVIEIKFGGETREFWIPPEDISAGG [r19_309_TrROS]	4.04 ± 0.13	3.08 ± 0.064	3.46 ± 0.076
SAGPTFEIVSVEEVDGKTYIRIRLPNGRIVTARITEVKRLGPDGKLYIKVEPGMSEEELKALLPPEVLKSAG [r5_462_TrROS_Hall]	2.29 ± 0.053	2.825 ± 0.02	2.63 ± 0.042
SAGPTVRIRFAGEEEIEVEVGEELEIRLPDGSVVRIRVKPDGTVTVTRPDGSEVELEDVDEVEIEVFPASAG [r5_869_TrROS_Hall]	3.3 ± 0.13	3.21 ± 0.076	3.4 ± 0.2
SAGPTVRQETFGEKYRIEVEVSPDGTVKVKIVNENGEVTELEGKVEPGKPVVLPFPLDGHVVNVVVLPASAG [r5_237_TrMRF]	1.54 ± 0.089	2.91 ± 0.06	2.52 ± 0.13
SAGPVKIQIEPDNGEEFEFRLPPNVSEIETSGDKFIIRFPPGMMFKIEIDEELPPGDTVPIRILDIVPSAGG [r19_274_TrROS]	1.33 ± 0.057	1.26 ± 0.15	1.21 ± 0.17
SAGPWIMIPLPPELREIAKKAGMSPDDVETVEIPLKFGDREVKIEVEVMPDDGWIMVRFKSNGKEFMIPSAG [r5_545_TrROS]	1.55 ± 0.1	3.22 ± 0.13	2.38 ± 0.29
SAGPWNIMVYDNGEPLEMIEIKGDEITIPLPPGPVRIAIFNPDDNGFVEEEVTPEDGTIEMKIPKGAKISAG [r5_469_TrROS]	-0.792 ± 0.44	0.207 ± 0.33	-0.113 ± 0.38
SAGPYVMIRIKWPGGEELSIPIPGAKITDVERDGDHITFMFDSPPAAEDIKEEIEDHFPGLKIEIQPIDSAG [r5_453_TrROS]	0.288 ± 0.16	1.17 ± 0.2	0.881 ± 0.14
SAGPYYVRITVSIYYPGNGAPHQHTIPIKGKTLDDIKDEIRDEIRDHGMKMDPGDEVEIQITDIEVYPGSAG [r5_230_TrROS]	0.905 ± 0.019	1.55 ± 0.06	1.28 ± 0.075
SAGQTIRIDEIYPHPDGFLIKIRYPDGKVHTFPIKPNMPITVDGDTITITFPGGPITIPLENMEIEILPSAG [r5_999_TrROS]	3.28 ± 0.069	3.17 ± 0.039	3.24 ± 0.064
SAGRIEIDKIEPGKPVRIKIKIEMPDPNGKKRKMDFTRRVRVDPENGMIYIPITMPNGRPIPIMINVKKSAG [r5_743_TrROS]	0.313 ± 0.23	0.552 ± 0.43	0.619 ± 0.29
SAGRIEVYQDPNMLRVIEIPLPNGREIVIYRPPGYYHIEIENPNNNKQIPIMIPMEPGDIKKIIKEFINSAG [r5_820_TrROS]	1.18 ± 0.046	1.38 ± 0.081	1.33 ± 0.11
SAGRIHVMVFPLDPKDGKWEWVWTFTIDFKPGEKLTLDEIADDIPPKGYMVMIWFTPDTITITIWRRKDSAG [r5_269_TrROS]	3.87 ± 0.092	5.33 ± 0.082	4.96 ± 0.12
SAGRIYVDPNMVVIEIKYPDKPMPIIIPFKDPEDQEMAKELVKKIMRYLRNEGLPVEVEVEVFPPGQPVSAG [r5_823_TrROS]	1.51 ± 0.026	2.41 ± 0.026	2.11 ± 0.11
SAGRKIPIMFTWPNGDPERMEEIAIEFANYLQPNGLPNVTIKIERKPVKDPENGKRRYVYMVTIEVQPPSAG [r5_49_TrROS]	1.92 ± 0.043	2.89 ± 0.089	2.44 ± 0.2
SAGRLTTELGDVKAEVFRIPNLNLSLVVYEYPTSVRTLLATEHGDTVTIHPLTETPLPLPPLSDLKSLSAGG [r19_328_TrMRF]	0.0381 ± 0.068	-0.064 ± 0.11	0.0233 ± 0.1
SAGSAAIKALLEKHPKPEVIEVTRLPGSGTLVIKVDDEDHVVPTPPGGFTETLTVDENGNVLSVEPHPASAG [r5_329_JUSTAS]	1.79 ± 0.11	1.65 ± 0.064	1.74 ± 0.14
SAGSAEEIAKKLAEELRKAGYEVKVKVVEVEKVGDGKVVVRVEIEVTYYDKNGKPVKKERFELTIVLPSAGG [r19_418_TrROS_Hall]	2.99 ± 0.12	4.69 ± 0.27	4.25 ± 0.19
SAGSALAAALKLKTYTIKITAPDGTVIELTISYHPSDPEAIKEALAKAGYPPEKLKTENPNLETTEVDASAG [r5_430_JUSTAS]	1.62 ± 0.071	1.83 ± 0.14	1.79 ± 0.16

Sequence	folding stability dG unfold [1] [kcal/mol]	folding stability dG unfold [2] [kcal/mol]	folding stability dG unfold [3] [kcal/mol]
SAGSATVTYDPDTNTVTVTLEGPDTTFTISFPNGEKLEVKATVKPLPDGSYKVLLEVYYPDGSKETFELSAG [r14_675_TrMRF]	4.13 ± 0.2	5.16 ± 0.3	> 6
SAGSEEEKKAIAEELKEKILKERPELQKKEYTVEVEITPLPDDSIRITVTVTLPSGETETREYVYPNKSAGG [r19_194_JUSTAS]	2.71 ± 0.26	2.95 ± 0.21	3 ± 0.24
SAGSITLVFKTPEELEEALKKLAEELGLSEEEVEALKKELEEKFTITYDEETGYVTITLKPELSEEELKSAG [r5_717_TrROS_Hall]	2 ± 0.13	3.71 ± 0.15	3.44 ± 0.24
SAGSKEALLSDPSFEPVEVEIHLEIEVPGVTPEEAEAIAKELEKEITEELKKKGIKNVKVTVTIRYVERSAG [r5_431_JUSTAS]	1.71 ± 0.044	2.49 ± 0.057	2.24 ± 0.071
SAGSKEFPFESEFEFEGYRVKVEVKVRVEFDENGKPTKNFKPEIKIEIKPLPPKPVITAEEALKLDPEKSAG [r14_442_TrMRF]	0.114 ± 0.19	1.93 ± 0.14	1.47 ± 0.3
SAGSKVPVTATATFSDKAELEKTVADIKAKTGYDIEVTYDPNSNSYTITVNTTDEVVKMLKEKGFKLESAGG [r19_306_JUSTAS]	2.33 ± 0.13	1.94 ± 0.13	2.14 ± 0.28
SAGSLELPPGVSEVVYDPSSGVYSVRYPDGTLVQVDVLYEPDPFVDELHPVAFVSVYSPTSLLATAPLNSAG [r5_109_TrMRF]	0.821 ± 0.019	1.07 ± 0.11	0.979 ± 0.067
SAGSMKIKIKAKVPPGPYRIRIMWQYPGGDFKPVEEETVDPGQEVKIPIEFPDGKPFDPDNIRVMIEPPSAG [r5_287_TrROS]	1.44 ± 0.14	2.47 ± 0.097	2.08 ± 0.25
SAGSMLLIKITITFKDPNGNLLKTIPIEKEADPNDPEAIEKAKEEAEKLAEELLPEDELAEVKAEVLLLSAG [r5_793_JUSTAS]	1.73 ± 0.11	2.36 ± 0.097	2.24 ± 0.19
SAGSMRTRKYEVERGEDEIVFPLPDGKVLRLPPDVGATVEVEYDPDGPPVRVTVRFPDGADYVLPYEELSAG [r5_45_JUSTAS]	-0.531 ± 0.45	1.11 ± 0.15	0.69 ± 0.15
SAGSPATLRAQAEEEARALAAELGAEVTVDVTVEPVPGEYVVRTTATLTFPGGEVRTLPRTTRVPRSLVSAG [r5_609_JUSTAS]	0.671 ± 0.071	1.09 ± 0.08	0.953 ± 0.08
SAGSPEELAEKIAEELAAEYEKKNPDKKPVKIEVKEVVVDPEGGSVTIKIKFYDPDGKPLAEPVITVESAGG [r19_53_JUSTAS]	1.74 ± 0.17	1.85 ± 0.13	1.76 ± 0.21
SAGSPSIVRTPSLTYDPDPRNPSTPRLRQASVTATNPNGETITFTFTSLEDMDAALNAWIAANPELLSSAGG [r19_123_JUSTAS]	0.59 ± 0.11	1.74 ± 0.089	1.38 ± 0.08
SAGSPVTLELRVTRPRADAATGAPATATETVTVTLPAAVVAAGLSPEEIARLLEAANPGATVELTAVASAGG [r19_110_JUSTAS]	0.844 ± 0.052	0.259 ± 0.14	0.582 ± 0.07
SAGSRILERLREEGLTITKVTSVEKGPGYERIEVETALPDGTTGKVKVTRDPADPDKIEVELEFTPAEVSAG [r5_683_JUSTAS]	0.797 ± 0.022	1.71 ± 0.023	1.38 ± 0.052
SAGSRTVTLTFYRPLSRPPGGAPVVREAERTVTLNLPDDTLSEEEIEALAEELRAEHPDVEVEITIDDSAGG [r19_369_JUSTAS]	0.664 ± 0.049	1.41 ± 0.092	1.18 ± 0.17
SAGSSETYSFKSPEEAKKKLKEEYGVSVEELPGNRVRINLVLDNKPVVVLIDTSTNLATVVSPEVVERKSAG [r14_402_JUSTAS]	-0.219 ± 0.21	-0.291 ± 0.8	-0.257 ± 0.23
SAGSSISSISRSPVSTEEDPSTNVRRTTYLEKYPGPPNLLKEVTVTTTFAPDGTPTVTPAVTTLSPALLSAG [r5_48_JUSTAS]	-0.817 ± 0.26	-0.899 ± 0.68	-0.717 ± 0.17
SAGSSLRLELDLEVTLYAPVVSVRPDGSLSLVPGSTRPIPVRLRVTFELTLDPDNPLNVSINVDIEADFSAG [r14_274_TrMRF]	4.1 ± 0.076	5.9 ± 0.081	> 6
SAGSSLTTTSTTTFPGTVRVTTKTPDGKTFTLTVSVSTVPTPDGRVVPSVTTTMDPAARSSNVSPEVDRSAG [r5_462_JUSTAS]	-0.463 ± 0.17	-0.0322 ± 0.075	-0.144 ± 0.086
SAGSVTTITDPAGTTTEIQPLPDGSLLTTTTTHTTNPATGGATTTTTTTLVSPVPGQPSTTTSTTTTPASAG [r5_424_JUSTAS]	1.58 ± 0.039	0.195 ± 0.027	1 ± 0.051
